# Read-outs that look alike come from different tables or passages of the source. Numbered stars: 1 amine (or outer) side, 2 acyl side, 3 side chain; on linkers, the order of the positions; unused ones are H or OH. Square brackets hold non-standard residues; d marks the D form. Side chains are listed from the residue outwards. Peptide text beside a SMILES is read from it. * marks the point of attachment. γGlu = O=C(O)[C@H](CCC(=O)[*:2])N[*:1]; Stearoyl = CCCCCCCCCCCCCCCCCC(=O)*; Aib = CC(C)(N)C(=O)O
# T1: human GIP R (Homo sapiens, UniProt P48546)
# T1 construct: expressed in transfected cells
# T1 sequence (P48546 22-466): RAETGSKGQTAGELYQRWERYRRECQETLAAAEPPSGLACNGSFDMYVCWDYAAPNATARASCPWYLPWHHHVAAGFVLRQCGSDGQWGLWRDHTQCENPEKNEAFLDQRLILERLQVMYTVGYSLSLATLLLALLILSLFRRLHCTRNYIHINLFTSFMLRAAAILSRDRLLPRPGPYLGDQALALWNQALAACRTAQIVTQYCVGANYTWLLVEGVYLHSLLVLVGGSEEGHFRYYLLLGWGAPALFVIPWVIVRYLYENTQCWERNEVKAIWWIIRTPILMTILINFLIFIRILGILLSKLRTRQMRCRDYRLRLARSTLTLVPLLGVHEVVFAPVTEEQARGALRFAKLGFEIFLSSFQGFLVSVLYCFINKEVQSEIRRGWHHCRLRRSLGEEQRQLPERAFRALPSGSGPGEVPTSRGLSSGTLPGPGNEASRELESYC
# T2: human GIP receptor (human, UniProt P48546 22-466)
# T2 sequence: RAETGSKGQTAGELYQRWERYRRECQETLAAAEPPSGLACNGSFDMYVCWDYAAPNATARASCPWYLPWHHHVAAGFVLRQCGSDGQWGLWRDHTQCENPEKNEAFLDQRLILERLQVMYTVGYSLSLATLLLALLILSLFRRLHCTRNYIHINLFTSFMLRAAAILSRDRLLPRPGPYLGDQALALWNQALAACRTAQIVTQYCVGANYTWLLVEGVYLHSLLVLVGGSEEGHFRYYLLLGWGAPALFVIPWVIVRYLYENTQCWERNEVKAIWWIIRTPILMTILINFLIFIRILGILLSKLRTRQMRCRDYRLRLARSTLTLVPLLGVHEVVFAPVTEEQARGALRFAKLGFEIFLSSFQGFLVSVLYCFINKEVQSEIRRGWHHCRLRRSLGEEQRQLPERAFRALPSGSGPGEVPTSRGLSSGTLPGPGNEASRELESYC
# Columns and labels:
# human GLP-1 R = molecular target: T3, human GLP-1 R (Homo sapiens, UniProt P43220); assay: cAMP induction in HEK293 cells expressing human GLP-1 R (AlphaScreen cAMP kit); format: cell-based; conditions: Table 2; average EC50, cAMP, HEK293 cells expressing human GLP-1 R; read-out: GLP1 R (EC50 in nM)
# T3 construct: expressed in transfected cells
# T3 sequence (P43220 24-463): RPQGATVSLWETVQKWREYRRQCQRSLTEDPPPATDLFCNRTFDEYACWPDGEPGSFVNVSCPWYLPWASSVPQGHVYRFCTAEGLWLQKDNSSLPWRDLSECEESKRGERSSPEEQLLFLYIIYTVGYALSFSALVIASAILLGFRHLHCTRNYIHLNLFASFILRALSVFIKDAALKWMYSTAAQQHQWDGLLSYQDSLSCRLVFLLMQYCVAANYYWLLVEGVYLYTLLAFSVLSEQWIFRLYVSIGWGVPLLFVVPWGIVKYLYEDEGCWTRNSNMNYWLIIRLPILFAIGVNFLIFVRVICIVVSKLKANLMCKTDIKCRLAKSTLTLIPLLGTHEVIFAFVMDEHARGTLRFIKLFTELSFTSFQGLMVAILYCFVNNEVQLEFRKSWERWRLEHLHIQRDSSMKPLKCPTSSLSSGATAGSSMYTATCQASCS
# human GCG R = molecular target: T4, human GCG R (Homo sapiens, UniProt P47871); assay: cAMP induction in HEK293 cells expressing human GCG R (AlphaScreen cAMP kit); format: cell-based
# T4 construct: expressed in transfected cells
# T4 sequence (P47871 26-477): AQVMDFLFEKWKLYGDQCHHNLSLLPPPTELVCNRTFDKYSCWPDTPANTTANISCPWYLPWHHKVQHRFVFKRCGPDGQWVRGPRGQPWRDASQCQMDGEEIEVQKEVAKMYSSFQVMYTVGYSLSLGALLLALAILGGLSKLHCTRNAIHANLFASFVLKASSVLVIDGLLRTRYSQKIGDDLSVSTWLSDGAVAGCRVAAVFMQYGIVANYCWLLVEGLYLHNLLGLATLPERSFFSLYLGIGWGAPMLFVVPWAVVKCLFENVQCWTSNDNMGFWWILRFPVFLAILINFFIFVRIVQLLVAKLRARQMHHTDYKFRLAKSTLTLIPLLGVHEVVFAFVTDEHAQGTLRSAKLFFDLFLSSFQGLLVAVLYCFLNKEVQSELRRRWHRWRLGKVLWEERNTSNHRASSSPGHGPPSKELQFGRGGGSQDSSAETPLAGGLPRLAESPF
# human GIP R = molecular target: T1, human GIP R; assay: cAMP induction in HEK293 cells expressing human GIP R (AlphaScreen cAMP kit); format: cell-based; conditions: GIP R (EC50 in nM)
# human GIP receptor [1] = molecular target: T2, human GIP receptor; assay: cell-based or functional assay
# human glucagon receptor [2] = molecular target: T5, human glucagon receptor (human, UniProt P47871 26-477); assay: cell-based or functional assay
# T5 sequence (P47871 26-477): as above
# [3] = molecular target: T6, human glucagon-like peptide 1 receptor (human, UniProt P43220 24-463); assay: cell-based or functional assay
# human GIP receptor [4] = molecular target: T2, human GIP receptor; assay: cell-based or functional assay; remark: listed apart in the source
# human glucagon receptor [5] = molecular target: T5, human glucagon receptor; assay: cell-based or functional assay; remark: listed apart in the source
# [6] = molecular target: T6, human glucagon-like peptide 1 receptor; assay: cell-based or functional assay; remark: listed apart in the source
Molecule,EC50 (cAMP induction) (human GIP receptor [1]),EC50 (cAMP induction) (human glucagon receptor [2]),EC50 (cAMP induction) [3],EC50 (cAMP induction) (human GIP receptor [4]),EC50 (cAMP induction) (human glucagon receptor [5]),EC50 (cAMP induction) [6],EC50 (human GLP-1 R),EC50 (human GCG R),"EC50 (human GIP R; Table 2, average EC50, cAMP)","EC50 (human GIP R; Table 2b (most comprehensive data), average EC50, cAMP)"
CC(C)C[C@H](NC(=O)[C@H](CC(C)C)NC(=O)[C@H](Cc1c[nH]c2ccccc12)NC(=O)[C@H](CCC(=O)O)NC(=O)[C@@H](NC(=O)[C@H](Cc1ccccc1)NC(=O)[C@H](CCC(=O)O)NC(=O)[C@H](CCCCN)NC(=O)[C@H](CCC(N)=O)NC(=O)[C@H](C)NC(=O)[C@H](CCCCN)NC(=O)[C@H](CCCCN)NC(=O)[C@H](CCC(=O)O)NC(=O)[C@H](CC(C)C)NC(=O)[C@H](Cc1ccc(O)cc1)NC(=O)[C@H](CCCCN)NC(=O)[C@H](CO)NC(=O)[C@H](Cc1ccc(O)cc1)NC(=O)[C@H](CC(=O)O)NC(=O)[C@H](CO)NC(=O)[C@@H](NC(=O)[C@H](Cc1ccccc1)NC(=O)[C@@H](NC(=O)CNC(=O)[C@H](CCC(N)=O)NC(=O)C(C)(C)NC(=O)[C@@H](N)Cc1ccc(O)cc1)[C@@H](C)O)[C@@H](C)O)C(C)C)C(=O)N[C@@H](CO)C(=O)N[C@@H](C)C(N)=O [Compound 22] (HELM PEPTIDE1{Y.[Aib].Q.G.T.F.T.S.D.Y.S.K.Y.L.E.K.K.A.Q.K.E.F.V.E.W.L.L.S.A.[am]}$$$$V2.0),–,–,–,–,–,–,0.028 nM,0.76 nM,0.18 nM,0.03 nM
H-Y[Aib]QGTFTSDYSIALEKK([Peg3-Peg3-γGlu-Stearoyl])AQRAFVEWLLAQK-NH2 [Compound 46],0.011 nM,0.13 nM,0.16 nM,–,–,–,–,–,–,–

# Second part, led by results:
EC50 (cAMP induction) (human GIP receptor [1]),EC50 (cAMP induction) (human glucagon receptor [2]),EC50 (cAMP induction) [3],EC50 (cAMP induction) (human GIP receptor [4]),EC50 (cAMP induction) (human glucagon receptor [5]),EC50 (cAMP induction) [6],Molecule,EC50 (human GLP-1 R),EC50 (human GCG R),"EC50 (human GIP R; Table 2, average EC50, cAMP)","EC50 (human GIP R; Table 2b (most comprehensive data), average EC50, cAMP)"
0.015 nM,0.022 nM,0.022 nM,0.13 nM,0.022 nM,0.015 nM,YAQGTFTSDYSKYLDSKAAHDFVEWLLRA (HELM PEPTIDE1{Y.[Aib].Q.G.T.F.T.S.D.Y.S.K.Y.L.D.S.K.A.A.H.D.F.V.E.W.L.L.R.A.[am]}$$$$V2.0; SMILES CC(C)C[C@H](NC(=O)[C@H](CC(C)C)NC(=O)[C@H](Cc1c[nH]c2ccccc12)NC(=O)[C@H](CCC(=O)O)NC(=O)[C@@H](NC(=O)[C@H](Cc1ccccc1)NC(=O)[C@H](CC(=O)O)NC(=O)[C@H](Cc1c[nH]cn1)NC(=O)[C@H](C)NC(=O)[C@H](C)NC(=O)[C@H](CCCCN)NC(=O)[C@H](CO)NC(=O)[C@H](CC(=O)O)NC(=O)[C@H](CC(C)C)NC(=O)[C@H](Cc1ccc(O)cc1)NC(=O)[C@H](CCCCN)NC(=O)[C@H](CO)NC(=O)[C@H](Cc1ccc(O)cc1)NC(=O)[C@H](CC(=O)O)NC(=O)[C@H](CO)NC(=O)[C@@H](NC(=O)[C@H](Cc1ccccc1)NC(=O)[C@@H](NC(=O)CNC(=O)[C@H](CCC(N)=O)NC(=O)C(C)(C)NC(=O)[C@@H](N)Cc1ccc(O)cc1)[C@@H](C)O)[C@@H](C)O)C(C)C)C(=O)N[C@@H](CCCNC(=N)N)C(=O)N[C@@H](C)C(N)=O) [Compound 3],–,–,–,–
0.033 nM,0.013 nM,0.013 nM,0.38 nM,0.013 nM,0.033 nM,H-YSQGTFTSDYSKYLDSKAAHDFVEWLLRA-NH2 [Compound 1],–,–,–,–

# Reference: patent publication US10131702B2, “Glucagon-GLP-1-GIP triple agonist compounds” (priority 2013, dated 2018)
